Test results as given in patent US20190367619A1 (ARGENX, published 2019).
Residue numbers refer to the chain shown, from its start.

B1: 6A08 mouse IgG1 (antibody, V domains shown)
VH: QVQLVESGGGLVQPGGSLRLSCAASGFTFSSYAMSWVRQAPGKGPEWVSAINRGGGSTYYADSVKGRFTISRDNAKNTLYLQMNSLKPEDAAVYYCATPGDRLWYYRYDYWGQGAQVTVSS
VL: QTVVTQEPSLSVSPGGTVTLTCGLSSGSVTSSNYPGWYQQTPGQAPRLLIYNTNSRYSGVPNRFSGSISGNKAALIISGAQPEDEADYHCALNRVRGTYRVFGGGTHLTVL
notes: also called 6A08 mIgG1
B2: 2C07 mouse IgG1 (antibody, V domains shown)
VH: ELQLVESGGGLVQPGGSLRLSCAASGFTFSSYAMSWVRQAPGKGLEWVSNINSGGGSTGYADSVKGRFTISRDNAKNTLYLQMNSLKPEDMAVYYCAKYLRTYYPNAAFGMDYWGKGTLVTVSS
VL: QAVLTQPSAVSVSLGQTARITCQGGNFGRYYASWYQQKPGQAPVLVIYRDSERPSGIPERFSGSSSGDTATLTISGAQAEDEADYYCQSGRSSDNAVFGGGTHLTGL
notes: VH on mouse IgG1 heavy chain constant domains (CH1-CH2-CH3), VL on mouse lambda light chain constant domain; also called 2C07 mIgG1
B3: 6E10 mouse IgG1 (antibody, V domains shown)
VH: QLQLVESGGGLVQPGGSLRLSCAASGFTFSSYWMYWVRQAPGKGLEWVSAINTGGGSTYYADSVKGRFTISRDNAKNTLYLQMNSLKPEDTALYYCARAGSGVAGTGYDYWGQGTQVTVSS
VL: B2 VL with A2P, T5N, R29Y, A32V, E52G, R91S, G106V
notes: also called 6E010; 6E10 mIgG1
B4: 6F06 mouse IgG1 (antibody, V domains shown)
VH: QVQLVESGGGLVQPGGSLRLSCAASEFTFSRYSMSWVRQAPGKGLEWVSTINSGGGSTSYVDSVKGRFTISRDNAKNTLYLQMNSLKPEDTAVYYCTKSQGGISFSTQYGMDYWGKGTLVTVSS
VL: B2 VL with Q1N, A2F, V3M, S33N, R49K, A83S, R91S, S92V, T105A, G106V
notes: also called 6F06 mIgG1
B5: 6B06 mouse IgG1 (antibody, V domains shown)
VH: QVQRQESGPGLVKPSQTLSLTCTVSGGSITTNYYSWSWIRQPPGKGLEWIGYIAYSGSTSYSPSLKSRTSISRDTSNNQFSLQLSSVTPEDTAVYYCARSRSSPTTFGMDYWGKGTLVTVSS
VL: B2 VL with Q1S, A2S, V3A, A32V, Q36T, R49Q, S55T, R91T, A96I, G106V
notes: also called 6B06 mIgG1

Experiments:
[1] = molecular target: T1, TEV-cleaved wild-type recombinant human galectin-10 (soluble, in Fab complexes, or as recombinant galectin-10 … (human, UniProt Q05315 1-142)); experiment: cell-based or functional assay
T1 sequence: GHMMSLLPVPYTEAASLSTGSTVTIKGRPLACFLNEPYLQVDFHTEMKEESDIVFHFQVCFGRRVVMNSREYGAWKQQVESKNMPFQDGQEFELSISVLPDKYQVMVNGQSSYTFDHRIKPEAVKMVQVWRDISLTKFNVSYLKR

[2] = molecular target: T2, human galectin-10-His (recombinant human galectin-10 with TEV-cleavable N-terminal His-tag) (human); experiment: ELISA, mouse IgG1 on coated galectin-10-His (0.2 ug/mL)
T2 construct: SEC-MALLS: dimer in solution; also called Gal10-His; humanGal10-His
T2 chain: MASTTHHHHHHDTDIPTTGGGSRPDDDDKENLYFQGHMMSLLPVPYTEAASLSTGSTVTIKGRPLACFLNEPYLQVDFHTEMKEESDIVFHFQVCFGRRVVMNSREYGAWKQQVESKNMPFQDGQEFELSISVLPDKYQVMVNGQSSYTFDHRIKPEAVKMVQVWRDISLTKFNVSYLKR
Procedure: In a similar setup to that used during the characterization of the scFv-human Fc molecules, the relative binding affinities of the 10 mouse IgG1 antibodies were analyzed by ELISA. A Maxisorp plate was coated overnight with 0.2 μg/mL of galectin-10-His. Then a serial dilution of each clone (from 100 nM, dilution 1/4, 12 points of dilutions) was incubated on coated galectin-10. After several washing steps, detection of the bound mouse IgG1 was carried out with an anti-mouse Fc-HRP antibody. Absorbance was measured at 450 nm (reference at 620 nm) with Tecan instrument. A mouse IgG1 isotype control was used as negative control. A polyclonal anti-galectin-10 antibody was used as positive control for the coating of galectin-10. The raw data (OD values) were plotted on GraphPad Prism 7.01. The EC50 values for each antibody, calculated with a non-linear regression (log(agonist) vs. response Variable slope (four parameters)), are reported in Table 7 below.

[3] = molecular target: T2, human galectin-10-His (recombinant …); experiment: BLI tandem on galectin-10-His; buffer in place of the saturating antibody
Procedure: (§1) In order to identify the galectin-10 binding sites of the different clones, an epitope mapping method (TANDEM), using the BLI technology, was established. Briefly, the galectin-10-His was captured on anti-HIS 1K sensor tips, before incubation with an excess of one antibody (called the “saturating” antibody) then directly transferred to a solution containing the “competitor” antibody at a suboptimal concentration. If the “saturating” and the competitor antibody bind to the same binding sites, no binding of “competitor” will be detected (expressed in nm shift).

[4] = molecular target: T2, human galectin-10-His (recombinant …); experiment: BLI tandem on galectin-10-His; competitor: saturating 1C09 mIgG1 (10 ug/mL)
Procedure: as §1

[5] = molecular target: T2, human galectin-10-His (recombinant …); experiment: BLI tandem on galectin-10-His; competitor: saturating 1D11 mIgG1 (10 ug/mL)
Procedure: as §1

[6] = molecular target: T2, human galectin-10-His (recombinant …); experiment: BLI tandem on galectin-10-His; competitor: saturating 2C07 mIgG1 (10 ug/mL)
Procedure: as §1

[7] = molecular target: T2, human galectin-10-His (recombinant …); experiment: BLI tandem on galectin-10-His; competitor: saturating 2F09 mIgG1 (10 ug/mL)
Procedure: as §1

[8] = molecular target: T2, human galectin-10-His (recombinant …); experiment: BLI tandem on galectin-10-His; competitor: saturating 4E08 mIgG1 (10 ug/mL)
Procedure: as §1

[9] = molecular target: T2, human galectin-10-His (recombinant …); experiment: BLI tandem on galectin-10-His; competitor: saturating 6A05 mIgG1 (10 ug/mL)
Procedure: as §1

[10] = molecular target: T2, human galectin-10-His (recombinant …); experiment: BLI tandem on galectin-10-His; competitor: saturating 6A08 mIgG1 (10 ug/mL)
Procedure: as §1

[11] = molecular target: T2, human galectin-10-His (recombinant …); experiment: BLI tandem on galectin-10-His; competitor: saturating 6B06 mIgG1 (10 ug/mL)
Procedure: as §1

[12] = molecular target: T2, human galectin-10-His (recombinant …); experiment: BLI tandem on galectin-10-His; competitor: saturating 6E10 mIgG1 (10 ug/mL)
Procedure: as §1

[13] = molecular target: T2, human galectin-10-His (recombinant …); experiment: BLI tandem on galectin-10-His; competitor: saturating 6F06 mIgG1 (10 ug/mL)
Procedure: as §1

[14] = molecular target: T2, human galectin-10-His (recombinant …); experiment: BLI tandem on galectin-10-His; isotype control as saturating antibody (10 ug/mL)
Procedure: as §1

[15] = molecular target: T2, human galectin-10-His (recombinant …); experiment: SPR Biacore T3000, mouse IgG1 captured by anti-mouse Fc, galectin-10-His as analyte
Procedure: The binding capacity of the mouse IgG1 antibodies to galectin-10 was analyzed on Biacore T3000. For this purpose, a capture approach was set up. A CM5 Chip was coated with polyclonal anti-mouse Fc at 8000 RU, then a fixed concentration of the mouse IgG1 antibody panel (1.5 μg/mL), diluted in HBS-EP pH7.4, was captured to reach a binding signal around 150 RU. Finally, a serial dilution of galectin-10-His (serial dilution, 1 over 2 from 5 μg/mL) diluted in HBS-EP pH7.4 was injected. Raw data were analyzed via BIA evaluation software with a blank subtraction (4-3). The kd/KD and Rmax of each mAb to galectin-10-His was determined using the Fit Kinetics simultaneous ka/kd/Binding with mass transfer/Local Rmax on BIA evaluation software.

Binder | 100% Solubilization of CLC (Conc uM) [1] [µM] | Bmax [2] [OD] | EC50 [2] [nM] | binding signal (nm) [3] [nm] | binding signal (nm) [4] [nm] | binding signal (nm) [5] [nm] | binding signal (nm) [6] [nm] | binding signal (nm) [7] [nm] | binding signal (nm) [8] [nm] | binding signal (nm) [9] [nm] | binding signal (nm) [10] [nm] | binding signal (nm) [11] [nm] | binding signal (nm) [12] [nm] | binding signal (nm) [13] [nm] | binding signal (nm) [14] [nm] | Kd [15] [nM] | koff [15] [s⁻¹]
B1 | > 10 | 3.2 | 0.15 | 1.08 | 0 | 0.05 | 0.05 | 0 | -0.05 | 0.05 | -0.04 | 0.05 | -0.05 | 0.05 | 1.04 | 1 | 0.00067
B2 | > 2.2 | 2.95 | 0.08 | 0.8 | 0 | 0.04 | 0.03 | -0.01 | -0.05 | 0.04 | -0.01 | 0.04 | -0.04 | 0.04 | 0.73 | 0.5 | 0.00036
B3 | 10.5 | 2.4 | 0.17 | 1.38 | 0.03 | 0.1 | 0.06 | 0 | 0.1 | 0.09 | 0.04 | 0.04 | 0 | 0.07 | 1.34 | 0.5 | 0.00082
B4 | 7.57 | 2.93 | 0.08 | 1.22 | 0 | 0.06 | 0.03 | 0 | 0.02 | 0.05 | 0 | 0.03 | -0.03 | 0.04 | 1.15 | 0.7 | 0.00487
B5 | > 10 | 3.28 | 0.08 | 0.98 | 0.01 | 0.07 | 0.04 | 0 | 0.03 | 0.06 | 0.02 | 0.03 | -0.02 | 0.05 | 0.94 | 0.3 | 0.00306
